The source of these data is IntAct's records for PubMed 16824542.

B1: SH2B adapter protein 2 (Rattus norvegicus (Rat)), Q9Z200 (parent)
chain: MNGATPGSAAAPAPVPDWRQFCELHAQVAAVDFAHKFCRFLRDNPTYDTPDAGTSFSRHFAANFLAVFSEEVRRVLGTAADTMEPEPAVTSVTSALKTATYGHSRSSEDVSAHVATKARVRKGFSLRNMSLCVVDGVRDLWHRRASPEPEGGATPKTTEPVSEPRDKWTRRLRLARTLAAKVELVDIQREGALRFMVADDAASGPGGTAQWQKCRLLLRRAVAGERFRLEFFVPPKASRPKVSIPLSAIIEVRTTMPLEMPEKDNTFVLKVENGAEYILETIDSLQKHSWVADIQGCVDPGDSEEDTGLSCARGGCLASRVTSCSCELLTEADMPRPPETMTAVGAVVTAPHGRARDTVGESLAHVPLETFLQTLESSGGVSESNNTGDEGAELDPDAEAELELSDYPWFHGTLSRVKAAQLVLAGGPRSHGLFVIRQSETRPGECVLTFNFQGKAKHLRLSLNGHGQCHVQHLWFQSVFDMLRHFHTHPIPLESGGSADITLRSYVRAQGPPPDPGPAPNTAAPVPACWTEPAGQHYFSSLATATCPPTSPSNGAGASSSSGSSSSATSVPPRPAEGPLSARSRSNSTEHLLEAASGATEEPADATLGRARAVENQYSFY

The variants in the assay derive from B1. The conditions noted are these: with insr_human INSR.
Turning to R460A, the “effect of a mutation on the interaction” value is listed as “disrupting interaction”.

For the variant W475H, the “effect of a mutation on the interaction” value was “decreasing interaction”. Consider R442A, for which the “effect of a mutation on the interaction” value is recorded as “decreasing interaction”.
